What was measured:
Assay type in all cases: cell-based
[1] = substrate: OC[C@H]1OC(O)[C@@H](O)[C@@H](O)[C@@H]1O; experiment: Radioactive uptake assay (saturation kinetics) in HEK293T cells expressing mouse SGLT4; conditions: other: 30 min, Supplementary Fig. 4; pH 7.4; 37.0 °C
Procedure: (§1) For a typical transporter experiment we proceeded as follows. […] To minimize cell loss during the various washing steps in the radioactive uptake experiments, the wells where the cells were seeded were previously coated with poly- D-lysine, which improved their adhesion to the plastic surface of the wells. For this, each well of the 24-well plates was treated with 200 µl of a 0.01% poly-L-lysine solution for 10 min, washed 3 times with 1 ml of sterilized water and left to dry for 2 h. Only then could the 24-well plates be seeded with the appropriate cell lines and cultured overnight at 37 °C in 5% CO2.
On day two, the radioactive uptake assay could be performed. […]
Once the uptake medium was added to the cells, the plates were incubated at 37 °C in 5% CO2 during the required time. […] In each experiment, the transport activities were calculated after subtracting a “blank” value, corresponding to the radioactivity in the appropriate control cells (HEK293T cells that were stably or transiently transfected with one of the parent plasmids pEF6/MycHisA, pEF6HisB, pUB82 or pUB83 with no inserted cDNA) that were analyzed in parallel. […]
Supplementary Fig. 4: Transport activities for 1,5-anhydroglucitol and mannose of recombinant mouse SGLT4 and SGLT5 isoforms measured in HEK293T cells. […]

[2] = substrate: OC[C@H]1OC(O)[C@@H](O)[C@@H](O)[C@@H]1O; experiment: Radioactive uptake assay (saturation kinetics) in HEK293T cells stably overexpressing human SGLT5-iso2; conditions: other: transport of the labelled substrate, Michaelis-Menten fit, Fig. 2B; pH 7.4; 37.0 °C
Description: (§2) This assay was used to study (1) the transport of 1,5-AG or mannose by the HEK293T model cell lines that stably overexpressed the various transporters or by the transiently transfected HEK293T cells using JetPEI® as a transfection agent prepared as described above and (2) the substrate specificity of each transporter.
as §1
(§3) On day two, the radioactive uptake assay could be performed. The cell culture media was removed by aspiration and cells were incubated for 20 min at 37 °C and 5% CO2 with a basal medium (10 mM HEPES, pH 7.4, 1 mM CaCl2, 1 mM MgCl2, 2 mM KCl) containing 140 mM choline chloride to deplete intracellular […] ions. This was subsequently replaced with the uptake medium (basal medium + 140 mM NaCl, 25 μM cytochalasin B, 1 mg/ml BSA) containing either radioactive U-[^14C]-mannose (15,000 cpm/well) or 2-[^3H]-1,5-AG (30,000 cpm/well) and respectively, non-radioactive mannose or 1,5-AG, at the required concentration in the experiment. […]
(§4) Once the uptake medium was added to the cells, the plates were incubated at 37 °C in 5% CO2 during the required time. […] In each experiment, the transport activities were calculated after subtracting a “blank” value, corresponding to the radioactivity in the appropriate control cells (HEK293T cells that were stably or transiently transfected with one of the parent plasmids pEF6/MycHisA, pEF6HisB, pUB82 or pUB83 with no inserted cDNA) that were analyzed in parallel.

[3] = substrate: OC[C@H]1OC[C@H](O)[C@@H](O)[C@@H]1O; experiment: as above; conditions: pH 7.4, 37.0 °C
Description: as §2, §1, §3, §4

[4] = substrate: OC[C@H]1OC(O)[C@@H](O)[C@@H](O)[C@@H]1O; experiment: Radioactive uptake assay (saturation kinetics) in HEK293T cells stably overexpressing human SGLT4; conditions: other: transport of the labelled substrate, Fig. 2B; pH 7.4; 37.0 °C
Description: as §2
as §1, with “CO2. […]” for “CO2.”
as §4

B1: mouse SGLT4 (Mus musculus) (protein)
chain: MNTELVAMEPGVSRNGVRTETTTNPSLGLHTYDIVVVVIYFVFVLAVGIWSSIRASRGTVGGYFLAGRSMTWWPIGASLMSSNVGSGLFIGLAGTGAAGGLAVGGFEWNATFLLLALGWIFVPVYIAAGVVTMPQYLKKRFGGQRIQVYMSVLSLILYIFTKISTDIFSGALFIQMALGWNLYLSTVILLVVTAVYTIAGGLTAVIYTDALQTVIMVGGALVLMFLGFQEVGWYPGLQQLYRQAIPNTTVPNTTCHLPRPDAFHMLRDPVNGDIPWPGLIFGLTVLATWCWCTDQVIVQRSLAAKNLSHAKGGSVLGGYLKILPMFFIVMPGMISRALYPDEVACVDPDICQRVCGARVGCSNIAYPKLVMALMPVGLRGLMIAVIMAALMSSLTSIFNSSSTLFAIDVWQRFRRQASEQELMVVGRLFVVFLVVISILWIPIIQSSNSGQLFDYIQSITSYLAPPITALFLLAIFCKRVNEPGAFWGLMFGLVVGILRMILEFSYSAPACGEMDRRPAVLKDFHYLYFALLLCGLTAIIIVVISFFTEPIPDDKLARLTWWTRNCAVSDLQKKTSVSVNNTEDDNSPGLAGRPVVEGPAGDEEEANTTQGPEQPGALHRSWGKWLWNWFCGLSGAPQQALSPAEKAVLEQKLTSIEEEPLWRRVCNINAIILLAINIFLWGYFA
notes: expressed in transfected cells; host or cells: HEK293T
Km [1]: 200 µM

B2: human SGLT5 (Homo sapiens) (protein)
chain: MAANSTSDLHTPGTQLSVADIIVITVYFALNVAVGIWSSCRASRNTVNGYFLAGRDMTWWPIGASLFASSEGSGLFIGLAGSGAAGGLAVAGFEWNATYVLLALAWVFVPIYISSEIVTLPEYIQKRYGGQRIRMYLSVLSLLLSVFTKISLDLYAGALFVHICLGWNFYLSTILTLGITALYTIAGGLAAVIYTDALQTLIMVVGAVILTIKAFDQIGGYGQLEAAYAQAIPSRTIANTTCHLPRTDAMHMFRDPHTGDLPWTGMTFGLTIMATWYWCTDQVIVQRSLSARDLNHAKAGSILASYLKMLPMGLIIMPGMISRALFPDDVGCVVPSECLRACGAEVGCSNIAYPKLVMELMPIGLRGLMIAVMLAALMSSLTSIFNSSSTLFTMDIWRRLRPRSGERELLLVGRLVIVALIGVSVAWIPVLQDSNSGQLFIYMQSVTSSLAPPVTAVFVLGVFWRRANEQGAFWGLIAGLVVGATRLVLEFLNPAPPCGEPDTRPAVLGSIHYLHFAVALFALSGAVVVAGSLLTPPPQSVQIENLTWWTLAQDVPLGTKAGDGQTPQKHAFWARVCGFNAILLMCVNIFFYAYFA
notes: expressed in transfected cells
Km [2]: 1729 ± 568 µM
Km ([3]; other: hSGLT5 WT, Table 1 experiments): 226 ± 7 µM
Km ([3]; other: transport of the labelled substrate, Michaelis-Menten fit, Fig. 2B): 167 µM

B3: human SGLT4 (Homo sapiens) (protein)
chain: MSKELAAMGPGASGDGVRTETAPHIALDSRVGLHAYDISVVVIYFVFVIAVGIWSSIRASRGTIGGYFLAGRSMSWWPIGASLMSSNVGSGLFIGLAGTGAAGGLAVGGFEWNATWLLLALGWVFVPVYIAAGVVTMPQYLKKRFGGQRIQVYMSVLSLILYIFTKISTDIFSGALFIQMALGWNLYLSTGILLVVTAVYTIAGGLMAVIYTDALQTVIMVGGALVLMFLGFQDVGWYPGLEQRYRQAIPNVTVPNTTCHLPRPDAFHILRDPVSGDIPWPGLIFGLTVLATWCWCTDQVIVQRSLSAKSLSHAKGGSVLGGYLKILPMFFIVMPGMISRALFPDEVGCVDPDVCQRICGARVGCSNIAYPKLVMALMPVGLRGLMIAVIMAALMSSLTSIFNSSSTLFTIDVWQRFRRKSTEQELMVVGRVFVVFLVVISILWIPIIQSSNSGQLFDYIQAVTSYLAPPITALFLLAIFCKRVTEPGAFWGLVFGLGVGLLRMILEFSYPAPACGEVDRRPAVLKDFHYLYFAILLCGLTAIVIVIVSLCTTPIPEEQLTRLTWWTRNCPLSELEKEAHESTPEISERPAGECPAGGGAAENSSLGQEQPEAPSRSWGKLLWSWFCGLSGTPEQALSPAEKAALEQKLTSIEEEPLWRHVCNINAVLLLAINIFLWGYFA
notes: as for B2
Km [4]: 81 ± 8 µM

Source: PMC10439028, “SGLT5 is the renal transporter for 1,5-anhydroglucitol, a major player in two rare forms of neutropenia” (Cellular and Molecular Life Sciences: CMLS, 2023)
